In PMC6522554:

Target: BF520.M6.I1 Env (HIV-1 (clade A, infant BF520))

B1: BF520.1 mature mAb (IgG) (antibody, V domains shown)
VH: QVQLVQSGAEMKMPGASVKVSCKASGYTFTGNYIHWVRQAPGQGLEWMGWIAPHSGDTSYAQRFQGRVTMTGDTSLSTAYMELSRLRSDDTAVYYCARGPFPNYYGPGSYWGGLDFWGQGTLVSVSS
VL: EIVMTQSPATLSVSLGERATLSCRTSQNVAYNFAWYQQKPGQAPRLLIYEASSRATGTPARFSGSGFGTEFTLTISSMQSEDFAVYYCQQYNNWPSPFTFGPGTKVHIK
  potency (IC50) of neutralization of the autologous pseudovirus BF520.M6.I1: 1.1 μg ml^−1
